Reference: the DeepSol protein solubility set

Assay: soluble on expression in E. coli; label from the status in PepcDB or PDB records

Soluble on expression in E. coli, not soluble:
MGSDKIHHHHHHMTISEARLSPQVNLLPIKRHSNEEVEETAAILKKRTIDNEKCKDSDPGFGSLQRRLLQQLYGTLPTDEKIIFTYLQDCQQEIDRIIKQSIIQKESHSVILVGPRQSYKTYLLDYELSLLQQSYKEQFITIRLNGFIHSEQTAINGIATQLEQQLQKIHGSEEKIDDTSLETISSGSLTEVFEKILLLLDSTTKTRNEDSGEVDRESITKITVVFIFDEIDTFAGPVRQTLLYNLFDMVEHSRVPVCIFGCTTKLNILEYLEKRVKSRFSQRVIYMPQIQNLDDMVDAVRNLLTVRSEISPWVSQWNETLEKELSDPRSNLNRHIRMNFETFRSLPTLKNSIIPLVATSKNFGSLCTAIKSCSFLDIYNKNQLSNNLTGRLQSLSDLELAILISAARVALRAKDGSFNFNLAYAEYEKMIKAINSRIPTVAPTTNVGTGQSTFSIDNTIKLWLKKDVKNVWENLVQLDFFTEKSAVGLRDNATAAFYASNYQFQGTMIPFDLRSYQMQIILQELRRIIPKSNMYYSWTQL
MGSDKIHHHHHHMTISQQAVLAATAITKTFGAHVALHTIDIAFRPGEVHALLGENGAGKSTLIKILTGAYTPDAGTVLVDGAPMSFSTPQQAQAAGIGTVYQEVNLLTNMTVADNLFIGRQPRRFGLVDHRTMEREARRILSGYGLDIDVRAELATFSVAVQQIIAIARAVELSGKVLILDEPTASLDRSEVLKLFEIVRGLKARGLAIVFITHFLDQVFELCDHATVLRNGKLVGSQPIDTLNRTTLVRMMLGKDLSLHHDAVAGIEAEVGESLMQFTGYGLDGKVQPFTLTIHKGEVIGVAGLLGSGRTEMARLMFGIDSADKGELTLNGASFKIRSPRQAIDLGFGFCPEDRKADGIFGDLSVRENIIIAMQAKLGWLRTLSYDEQMEIAGQFIEALDIRTASAELPIKLLSGGNQQKAILARWLATDPRFLILDEPTRGIDVGAHAEIVRMISRLREDGLALIVISSELDEVVSYSSRIVVMRDRAMVAELHGADIAPDVIVQTIAAQSNTPAQSEGAFS
MGSDKIHHHHHHMTKHLYIDEYGSFVGKTSERLTVSQGGELKAEIPLSRLKSVNILKGGISLSSDIIEACSLRGIKIFFLDFRNVAHTAITSTANHAVANVRKAQFLTIESNHGREIARTLIVGKLKNQRATLQYFYKYLKNTDKQSKKLESAIEKIKETIESLKNIELSNNKHWSQIIMGKEGGMAAIYFDAIGAELLEECDFTTRIGRGAEDIMNSALNYGYAILTSFVWQSIINAGLEAYAGVLHTNRPGKPSLVLDVMEEYRAWVVDRNIIKLRSSLAGKKELDAELKKKIITEINATMNKKHLYNGKNLSLQGVMQRQVYRLVGAFMQQNRYKSYIFKW
MGSDKIHHHHHHMTKLHYIRNKDCNMKEGLKLNKGKLIAQGKTSEVFEYGQDKILKLFRKDLPEKNIENEYEVSFNLSKKMKLVPKVYDLVEVDDRKGIIYEKVNGTTMMEVISSKPWKVKKEAQRLAELHEAIQKPVDFELPDYKTTLKENISKTELLEEDIKKRLYDYIDELKDDDLLCHGDFHPDNVLITEEGEVIIDWMTASKGSRIADIARTSVMLKFGASPVKRSAEKKIIKFVRNRFYSGYIKHYMKITGINKEQIEEWELPIAAARLNEWLPKSEKVDLLKFIDMKMK
MGSDKIHHHHHHMTKREGGIKMAEKRRKRVVILGAAGRDFHNFNVFFRNNPEYEVVAFTATQIPDIEGRIYPPELAGELYPNGIPILPEDDLEKIIKEKDVDIVVFAYSDVSHEHVMHLASRAHSAGADFWLLGPKSTMIESKKPVVAVTAVRTGCGKSQTSRKVAQLLQEMGYKVAVIRHPMPYGDLRKQIVQRFASFEDLDRYECTIEEREEYEPYIERGMVVYAGVDYEKILREAEKEADIILWDGGNNDFPFYKPDLWIVVTDPHRPGHELTHHPGETNFRSADVIIINKIDTAYPENVQKIRENIEKVNPNAIVIEAASPIFVDKPELIKGKRVLVIEDGPTLTHGGMSYGAGYIAAKKFGAKEIVDPRPYAVGSIIETYKKYPHLSNILPAMGYGKKQIKELEETINRADADVVIMGTPVDLRRFMNLNKPAVRVKYELEEIGQPKLKDILEEWVKKCEKLKK
MGSDKIHHHHHHMTKVKLNFNKPSNVFNRNIFEILTNYDNFTEVHYGGGSSGKSHGVIQKVVLKALQDWKYPRRILWLRKVQSTIKDSLFEDVKDCLINFGIWDMCLWNKTDNKVELPNGAVFLFKGLDNPEKIKSIKGISDIVMEEASEFTLNDYTQLTLRLRERKHVNKQIFLMFNPVSKLNWVYKYFFEHGEPMENVMIRQSSYRDNKFLDEMTRQNLELLANRNPAYYKIYALGEFATLDKMVFPKYEKRLINKDELRHLPSYFGLDFGYVNDPSAFIHSKIDVKKKKLYIIEEYVKQGMLNDEIANVIKQLGYAKEEITADSAEQKSIAELRNLGLKRILPTKKGKGSVVQGLQFLMQFEIIVDERCFKTIEEFDNYTWQKDKDTGEYTNEPVDTYNHCIDSLRYSVERFYRPVRKRTNVSSKVDTIKSLGL
MGSDKIHHHHHHMTLDAVLTQIDTDLDAAMARLMALLRVPSISTDPAFDADVARAAQILCDDLTGLGFDASVRETTGHPMVVAHGDDTGPHVLFYGHYDVQPVDPLDLWDRDPFDPIIEEQNGKKVIRARGASDDKGQLMTFIEACRAWKAVTGKLPAKVTIFLEGEEESGSPSLVPFMEAHKDELTAEVALICDTGLFAEGVPAIVTQLRGMLQEEITVTGPRIDLHSGMFGGIAMNPIRVLSGVLAGLHDANGSVTVPGFYEGVPDISDDLRASWDALGFVPEAFLGPVGLSHPAGEAGRSGLEMIWSRPTAEVNGVWGGYTGAGFKTVLPSQAHAKISFRLVAGQDPDRLHENFVDWVTAQMPPDCTVSITQIAGSRASQMDTSHPIFETTRQALSDEWPNEAAYIGCGGSIPVAGHFKTILGMDSVLAGFGKDDDAIHSPNEKYDVESFHRGIRSWARVLGGLSEV
MGSDKIHHHHHHMTLELIPVGISACLLGNPVRFDGGHKRLTFAVEELAPYFRFESVCPEMAIGLPVPRPALRLVREGESHVTMRASNGSSLDVTQQITVFSADKVSQLQHLCGYIVCAKSPSCGMERVKVYDEAQKNARKSGVGLFTQELMRQMPWLPVEEDGRLHDSGLRENFIERVYALHELNQLWKNGLSRGALIAFHSRYKLLLLAHSQPEYRELGPFVAGIDKWESLEEYVVEYRTRLMKLLSTPATRRNHTNVLMHVQGYFRRQLSSQQRQELAQLIDRYRQGLQPLLAPITLLKHYMAEYPDAYLAQQRYFEPYPEALRLRYGH
MGSDKIHHHHHHMTLKSRIGILAGKTAHFFLSKIGRGSTLPGKIALKCDKDILDTLAKDYDIVVVTGTNGKTLTTALTVGILKEAYGQVLTNPSGANMITGITSTFLTAKKSRNGKKIAVLEIDEASLPKITDYLKPSLFVFTNIFRDQMDRYGEIYTTYQMILDGAAKAPKATILANGDSPLFNAKTVVNPVRYYGFDTKKEAAHLAHYNTEGIVCPKCEYILQYKLNTYANLGDYICPNCGFHRPHLDYSLTQLTKISNTQAEFIIDGQDYKINVGGLYNIYNALAAVAVAEFLGVTPEQIKAGFDKSRAVFGRQETFKIGDKSCTLVLIKNPVGASQALEMIKLAPYPFTLSVLLNANYADGIDTSWIWDANFESILDMNIPQIFTGGVRHSEIARRLRVTGYNETKIEQAEKLEDILSMIEKQEADHAYILATYTAMLEFRELLASRHAVRKEMH
MGSDKIHHHHHHMTLPATITHQEKLLTVDTTAHPFLKALGGHEGTDIFPLFMDPYNGLMVMRASFAPGLTLPLHFHTGTVHMYTISGCWYYTEYPGQKQTAGCYLYEPGGSIHQFNTPRDNEGQTEVIFMLSGCNVNFTQDGTYLGLSDAGVIKNWVDRAIREQDNGLRYIAAAVPTYAA
MGSDKIHHHHHHMTLWQPDPALIRRPAYQSLADQFARAIHDGRLANGARLPTHRRLADDLNLSVQTVSRAYEELIRRGLISGEIGRGSFVQTQRREPEPPYLPERLGEVIDLSILKPVCEPMHLERLKQALGWLAENLPSSSALSFRPNMVFPRHRAVAVEWLKLCGLDISAQNISLTNGATAGMTVALMSVAPPGSTVATEAIGHHTLVPLARYLGFNLQGLPIDDNGLIPEALDEACRLSDIRAVFVQPSVINPTATLMDAQRREQIAAVARKHDIAIIENDVLGPLVEDRPPPVAAFAPERTLYVTSFTKITVPGLRIGYLAAPDRYVAAVANRHLVSNWMATPLVAEIATKWVTDGTAMELVLWQRAALRRRQDIAAEVLARIDYRARRDGLHIWLQLPDDRAEEGFVAQARLQGVAIAPGTSFRISDAPWHPAVRISLGSTTEGELRAGLGVVTKLLLGDPEHLLLAI
MGSDKIHHHHHHMTNIAILGTASDVGKSIVATALCRIFSNAGVDVAPYKAQNMSNNSGVTPDGFEMGRAQIVQAQAARVAPHADMNPVLLKPNTDTGAQVVLQGKVCADKSAREYFGDTQRWAEAAFESLDRLMVRHELLVIEGAGSCAEMNLYQRDFVNFKTARRAGAAVILVADIDRGGVFAQVVGTLAVIPPEDRALVKGVIINRFRGDKSLFEGGVKMLESMTGVPVLGVIPYFRGFTIDAEDAVPLSSVVDPKQEPSGDKIGVAAIYFPHISNFTDLAPLERDPSVELHYLHRPKSLDGYKALILPGSKNVRGDLAWLETMGWRDEIEKFRKRGGIIVGLCGGYQMLGASIADPYGVEGAPGASAGLAMLPVETVLEREKALCNSVGKIAGTPFFVSGYEIHMGRTALEPGASPLLEVTERNGVATDDFDGAKSADGQVTGTYFHGFFDRPEVRTWFLRLLDGGYESPRGASVADPFELLAKHFSENLDLEKLFAIAGLSVKGEKES
MGSDKIHHHHHHMTNTLKTSYQKTPYKLGGNGPRNVGVLTEALQNIDDNSESDIYGNGAVIENFETKIAKILGKQSAVFFPSGTMAQQIALRIWADRKENRCVAYHPLSHLEIHEQDGLKELQQITPILLGTANRLLTIDDIKSLREPVSSVLIELPQREIGGQLPSFEELEEISEYCHEQGISLHLDGARLWEIMPFYQKSAEDICSLFDSVYVSFYKGIGGIAGAILAGNADFVQEAKIWKRRYGGDLISLYPYILSADYYFEKRIGKMAEYFEAAKGLAERFNSCPGLKTVPEVPISNMFHVYFEKSADEVGTILTKIQDETGVGISGYLQEKSADVCAFEVSVGDAFAEIPTKDLESAFECLEKELRL
MGSDKIHHHHHHMTPEKIEQIFRSFKEKKIAVIGDVMIDKYIFGHVSRISPEYPVPVVDVNRESSRLGGAANVAVNIHALGAEALLIGVTGDDTERRNLEALMTEHGLNPAMLAADSTRPTTCKTRILSQNHHITRVDYESRTPVDAELEKRLLGMFMEIANAVDAVVLEDYNKGVLTPSLIVSLIAACRERNKPVLVDPKLKGFFSYGGCSVFKPNLSELAASLGIPVANDDREVEQACLLLGEKLTVESLVVTRSEKGMTVYDGSFTHIPALSLDVADVSGAGDTVIGTLALGLASGLDLVTSTRIANLAANTVCQEVGAVPVRPDKLFSACLAHLQ
MGSDKIHHHHHHMTPSNVNSAGYKVIKISEFLSKKEYLDKKLVIPVYQRPYRWTAKNIVDLLSDLYYQCKRIGHRLGSPDNPDNFYRLGTVVLHQYVNNGSHQTNADLVDGQQRTLTLLLIMKSALESNRFTEQFNSFTPLEIELPDCSETQQNLSRNYELIRRHVNSPEFTSEVLDFLLNHCEVVQVTLHYLSEAFQFFDSQNARGLDLNPHDLLKAFHLREFPDSESLLKQNIVECWEQQNTKSLEVLFANYLYPIRRWSFGKQAVHFSKSEVNVFKGMKLDSDSYPFQENLRIVHNTVDSYNHHSHRLLDQQAMAYPFQLTQTLINGRRFFEWVTHYQEMIQPLLNKTIDSDSQKWLYTITSCHHTETGTSIKEVAKRPTAFNIFLVLNTDLPEYSYKGRSRRGDQYVRRMFDALVLCYYDRFGSHNLPRAIEYIFIWAYSLRLEKKSVYLESIEKHIGTDNLFERLQQSLSSVDFLSKPLPQPKKVDVTNVEGIKELFTKLGYLPT
